Literature values as cited in paper PMC3245798.

Biological target: SLAM (Homo sapiens) (UniProt Q13291)
Conditions: cited from earlier work

UniProt Q13291, sequence (Q13291 21-335): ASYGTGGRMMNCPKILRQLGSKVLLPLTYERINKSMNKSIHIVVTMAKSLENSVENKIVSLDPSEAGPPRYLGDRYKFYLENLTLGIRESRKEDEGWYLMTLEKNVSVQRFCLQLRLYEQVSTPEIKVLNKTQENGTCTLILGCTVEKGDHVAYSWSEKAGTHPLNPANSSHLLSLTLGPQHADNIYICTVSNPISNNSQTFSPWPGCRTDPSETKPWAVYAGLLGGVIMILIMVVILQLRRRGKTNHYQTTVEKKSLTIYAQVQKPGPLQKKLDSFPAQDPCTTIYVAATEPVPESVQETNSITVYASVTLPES

For “measles virus hemagglutinin (H) (from UniProt P08362)”, the Kd is listed as 0.08 µM.
